Data reported in US20260274944A1 (published 2026).

What was measured:
[1] = molecular target: T1, mouse RAGE (mRAGE) fused to EGFP, expressed on CHO cells (mouse, UniProt Q62151 23-402); test: flow
T1 chain: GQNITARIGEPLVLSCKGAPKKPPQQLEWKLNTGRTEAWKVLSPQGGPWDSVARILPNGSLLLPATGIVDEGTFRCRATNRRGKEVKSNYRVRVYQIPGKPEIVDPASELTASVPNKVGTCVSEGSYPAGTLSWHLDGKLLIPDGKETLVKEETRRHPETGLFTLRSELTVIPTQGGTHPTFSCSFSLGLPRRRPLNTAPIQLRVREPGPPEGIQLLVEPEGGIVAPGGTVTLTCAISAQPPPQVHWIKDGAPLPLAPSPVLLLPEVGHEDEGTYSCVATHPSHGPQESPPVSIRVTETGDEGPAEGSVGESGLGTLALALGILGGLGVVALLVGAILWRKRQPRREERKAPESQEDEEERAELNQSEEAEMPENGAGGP

[2] = molecular target: T1, mouse RAGE (mRAGE) fused to EGFP, …; test: flow
[3] = molecular target: T1, mouse RAGE (mRAGE) fused to EGFP, …; test: flow cytometry on CHO-mRAGE-EGFP cells; apparent Kd; column head prints TfR, legend says RAGE
[4] = molecular target: T1, mouse RAGE (mRAGE) fused to EGFP, …; test: flow cytometry on CHO-mRAGE-EGFP cells; apparent Kd
[5] = molecular target: T2, human RAGE (hRAGE) fused to EGFP, stably expressed on CHO cells (human, UniProt Q15109 23-404); test: flow cytometry on CHO-hRAGE-EGFP cells; apparent Kd; column head prints TfR, legend says RAGE
T2 sequence (Q15109 23-404): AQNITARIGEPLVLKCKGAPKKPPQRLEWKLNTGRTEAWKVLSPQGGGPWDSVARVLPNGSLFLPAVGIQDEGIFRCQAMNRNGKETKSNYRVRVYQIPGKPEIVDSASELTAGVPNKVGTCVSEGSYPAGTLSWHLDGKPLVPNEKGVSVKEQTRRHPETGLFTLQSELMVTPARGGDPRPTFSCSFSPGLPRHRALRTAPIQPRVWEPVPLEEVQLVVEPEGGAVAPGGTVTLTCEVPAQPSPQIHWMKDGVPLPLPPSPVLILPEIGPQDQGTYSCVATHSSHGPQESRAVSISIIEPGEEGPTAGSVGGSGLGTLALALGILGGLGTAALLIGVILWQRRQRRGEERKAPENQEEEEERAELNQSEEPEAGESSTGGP

[6] = molecular target: T1, mouse RAGE (mRAGE) fused to EGFP, …; test: flow cytometry on CHO-mRAGE-EGFP cells; apparent Kd
[7] = molecular target: T2, human RAGE (hRAGE) fused to EGFP, …; test: flow cytometry on CHO-hRAGE-EGFP cells; apparent Kd

B1: VHH 3 (VHH)
VHH: QVQLVQSGGGLVQAGGSLRLSCVASGRTFSNYAMAWFRQAPGEEREFVARISWSGGRTSYADSVKGRFTISRDNAKNTVYLQMISLKPEDTAVYYCATEAGAFGGVYSSTGSYDYWGQGTQVTVSS
- Kd [1]: 0.08 µM

B2: VHH 3-Fc (Fc fusion)
chain: QVQLVQSGGGLVQAGGSLRLSCVASGRTFSNYAMAWFRQAPGEEREFVARISWSGGRTSYADSVKGRFTISRDNAKNTVYLQMISLKPEDTAVYYCATEAGAFGGVYSSTGSYDYWGQGTQVTVSS
- Kd [2]: 0.0014 µM

B3: VHH 4-Fc (Fc fusion)
chain: EVQLVESGGGLVQAGGSLRLSCVASGRTFSNYAMAWFRQAPGEEREFVARISWRGGRTSYADSVKGRFTISRDNAKNTVYLQMISLKPEDTAVYYCASEGGAFGGVYSATGSYDYWGQGTQVTVSS
- Kd [3]: 0.0014 µM

B4: VHH 4-siTTRm (antibody, V domains shown)
VH: EVQLVESGGGLVQAGGSLRLSCVASGRTFSNYAMAWFRQAPGEEREFVARISWRGGRTSYADSVKGRFTISRDNAKNTVYLQMISLKPEDTAVYYCASEGGAFGGVYSATGSYDYWGQGTQVTVSS
- Kd [4]: 0.011 µM

B5: VHH 1-Fc (Fc fusion)
chain: QVQLVQSGGGLVQPGGSLRLSCAVSGSIFSSATMGWYRQAPGKQRELAARISSGGSTNYLDSVKGRFTISRDNAKNTVYLQMNSLKLEDTAVYYCRLQANFGLVDYWGKGTQVTVSS
- Kd [3]: 0.0019 µM
- Kd [5]: 0.154 µM

B6: VHH 1 (VHH)
VHH: QVQLVQSGGGLVQPGGSLRLSCAVSGSIFSSATMGWYRQAPGKQRELAARISSGGSTNYLDSVKGRFTISRDNAKNTVYLQMNSLKLEDTAVYYCRLQANFGLVDYWGKGTQVTVSS
- Kd [6]: 0.32 µM
- Kd [7]: 0.347 µM

B7: VHH 2-Fc (Fc fusion)
chain: QVQLVQSGGGLVQAGGSLRLSCAASGSVSSIYAMGWYRQAPGKQREWVTTITGRGITDYAASVKGRFTISRDTAKNAVYLQMNNLKPEDTARYYCKIDRRGYAPYWGQGTQVTVSS
- Kd [3]: 0.0096 µM
- Kd [5]: 0.0036 µM

B8: VHH 2 (VHH)
VHH: QVQLVQSGGGLVQAGGSLRLSCAASGSVSSIYAMGWYRQAPGKQREWVTTITGRGITDYAASVKGRFTISRDTAKNAVYLQMNNLKPEDTARYYCKIDRRGYAPYWGQGTQVTVSS
- Kd [6]: 0.526 µM

B9: VHH 2-siTTRm (antibody, V domains shown)
VH: QVQLVQSGGGLVQAGGSLRLSCAASGSVSSIYAMGWYRQAPGKQREWVTTITGRGITDYAASVKGRFTISRDTAKNAVYLQMNNLKPEDTARYYCKIDRRGYAPYWGQGTQVTVSS
- Kd [4]: 0.119 µM

B10: VHH 5-Fc (Fc fusion)
chain: EVQLVESGGGLVQPGGSLRLSCAASGTIFSLNPMGWYRQAPGKQLELVALISDSGTANYADFVRGRFTISRDTTKKTLYLQMNSLEPEDTAVYYCRSTFAAGNFYWGQGTQVTVSS
- Kd [3]: 0.153 µM
- Kd [5]: 0.0032 µM
